Data published in paper PMC4609182 (2015).

Tests used:
[1] = target: T1, Parkin R0RBR module (RING0, RING1, IBR, RING2), wild type (rat, UniProt Q9JK66 141-465); assay: ITC
T1 chain: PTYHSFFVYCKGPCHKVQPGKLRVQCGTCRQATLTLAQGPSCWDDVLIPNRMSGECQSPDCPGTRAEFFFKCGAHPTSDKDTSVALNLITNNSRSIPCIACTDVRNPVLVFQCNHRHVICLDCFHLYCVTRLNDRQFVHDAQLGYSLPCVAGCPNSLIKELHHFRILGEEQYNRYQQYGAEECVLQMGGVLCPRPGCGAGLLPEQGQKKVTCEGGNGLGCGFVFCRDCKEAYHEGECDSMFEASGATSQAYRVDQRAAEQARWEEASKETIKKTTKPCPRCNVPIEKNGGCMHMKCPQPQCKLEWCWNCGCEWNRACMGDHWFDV

Ub = Ub (Homo sapiens); assay: ITC

B1: Parkin Ubl domain (ubiquitin-like domain), unmodified (domain or fragment)
chain: MIVFVRFNSSYGFPVEVDSDTSIFQLKEVVAKRQGVPADQLRVIFAGKELQNHLTVQNCDLEQQSIVHIVQRPQRK
Kd [1]: 14 µM

B2: Parkin R0RBR module (RING0, RING1, IBR, RING2), wild type (domain or fragment)
chain: PTYHSFFVYCKGPCHKVQPGKLRVQCGTCRQATLTLAQGPSCWDDVLIPNRMSGECQSPDCPGTRAEFFFKCGAHPTSDKDTSVALNLITNNSRSIPCIACTDVRNPVLVFQCNHRHVICLDCFHLYCVTRLNDRQFVHDAQLGYSLPCVAGCPNSLIKELHHFRILGEEQYNRYQQYGAEECVLQMGGVLCPRPGCGAGLLPEQGQKKVTCEGGNGLGCGFVFCRDCKEAYHEGECDSMFEASGATSQAYRVDQRAAEQARWEEASKETIKKTTKPCPRCNVPIEKNGGCMHMKCPQPQCKLEWCWNCGCEWNRACMGDHWFDV
modifications: unmodified (non-phosphorylated) ubiquitin; only the figure label 'Ub' is given, so wild type is assumed (the non-phosphorylatable control in Fig EV3B is a separate His-tagged UbS65A)
Kd (Ub): 41 µM
